Measured values taken from the supplement of paper PMC6757056.
± gives the standard deviation of the averaged measurements.

B1: library; a variant is named by its letters at N, in order (parent)
chain: GCUGUCACCGGUGUAUUACCCUAGUGGUCGACCGGUCUGAUGAGUCUNNNNNNAGACGAAACAGC

Tests used:
hypoxanthine [1] = variants of: B1; assay: normalized RNA/DNA level with ligand (relative to sTRSVctl = 100) (log10 (% of sTRSVctl)); ligand: hypoxanthine (xanthine aptamer); higher = less ribozyme self-cleavage, higher mRNA level; details: ligand concentration (+) RNA-Seq: 5 mM, HEK293T, reporter: mCherry (pCS4076), ligand present: yes
How it was run: (§1)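 Library plasmids carrying ribozyme switches linked to mCherry, or to eGFP in some ligand experiments, were transfected into HEK293T at 4 µg per 6-well well, with any ligand added 1 h earlier. Seventy-two hours on, total RNA was extracted with EDTA and reverse-transcribed, amplified, barcoded and sequenced. RNA level was RNA over DNA reads normalized to a spiked-in non-cleaving sequence or to the top sequences, then scaled and log-transformed. The top set was 25 sequences, the transform was ×100 and log10, and sequences needed ≥100 DNA reads.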

hypoxanthine [2] = variants of: B1; assay: normalized RNA/DNA level without ligand (relative to sTRSVctl = 100) (log10 (% of sTRSVctl)); ligand: hypoxanthine (xanthine aptamer); higher = less ribozyme self-cleavage, higher mRNA level; details: HEK293T, reporter: mCherry (pCS4076), ligand present: no
How it was run: as §1

## GCCACC
Hypoxanthine [1]
  normalized RNA/DNA level with ligand (log10): 1.905 ± 0.011
Hypoxanthine [2]
  normalized RNA/DNA level without ligand (log10): 1.834 ± 0.0019

## GCCACA
Hypoxanthine [1]
  normalized RNA/DNA level with ligand (log10): 1.958 ± 0.0033
Hypoxanthine [2]
  normalized RNA/DNA level without ligand (log10): 1.871 ± 0.0054

## GCGCAA
Hypoxanthine [1]
  normalized RNA/DNA level with ligand (log10): 1.873 ± 0.014
Hypoxanthine [2]
  normalized RNA/DNA level without ligand (log10): 1.52 ± 0.023

## GCGCAU
Hypoxanthine [1]
  normalized RNA/DNA level with ligand (log10): 1.89 ± 0.026
Hypoxanthine [2]
  normalized RNA/DNA level without ligand (log10): 1.55 ± 0.044

## UCCCAU
Hypoxanthine [1]
  normalized RNA/DNA level with ligand (log10): 1.93 ± 0.032
Hypoxanthine [2]
  normalized RNA/DNA level without ligand (log10): 1.829 ± 0.0082

## UCCCAA
Hypoxanthine [1]
  normalized RNA/DNA level with ligand (log10): 1.918 ± 0.011
Hypoxanthine [2]
  normalized RNA/DNA level without ligand (log10): 1.765 ± 0.0033

## GCCUGC
Hypoxanthine [1]
  normalized RNA/DNA level with ligand (log10): 1.977 ± 0.012
Hypoxanthine [2]
  normalized RNA/DNA level without ligand (log10): 1.86 ± 0.045

## GCCUGG
Hypoxanthine [1]
  normalized RNA/DNA level with ligand (log10): 1.94 ± 0.062
Hypoxanthine [2]
  normalized RNA/DNA level without ligand (log10): 1.5 ± 0.017

## GCCUGU
Hypoxanthine [1]
  normalized RNA/DNA level with ligand (log10): 1.93 ± 0.024
Hypoxanthine [2]
  normalized RNA/DNA level without ligand (log10): 1.83 ± 0.015

## CCCGUG
Hypoxanthine [1]
  normalized RNA/DNA level with ligand (log10): 1.97 ± 0.026
Hypoxanthine [2]
  normalized RNA/DNA level without ligand (log10): 1.812 ± 0.0064

## CCCGUU
Hypoxanthine [1]
  normalized RNA/DNA level with ligand (log10): 1.93 ± 0.056
Hypoxanthine [2]
  normalized RNA/DNA level without ligand (log10): 1.9 ± 0.024

## CCCGUC
Hypoxanthine [1]
  normalized RNA/DNA level with ligand (log10): 2.027 ± 0.018
Hypoxanthine [2]
  normalized RNA/DNA level without ligand (log10): 2.021 ± 0.019

## CCCGUA
Hypoxanthine [1]
  normalized RNA/DNA level with ligand (log10): 1.92 ± 0.015
Hypoxanthine [2]
  normalized RNA/DNA level without ligand (log10): 1.85 ± 0.035

## UCCUAA
Hypoxanthine [1]
  normalized RNA/DNA level with ligand (log10): 1.956 ± 0.019
Hypoxanthine [2]
  normalized RNA/DNA level without ligand (log10): 1.807 ± 0.017

## UCCUAU
Hypoxanthine [1]
  normalized RNA/DNA level with ligand (log10): 1.957 ± 0.0089
Hypoxanthine [2]
  normalized RNA/DNA level without ligand (log10): 1.851 ± 0.0031

## UCCUAG
Hypoxanthine [1]
  normalized RNA/DNA level with ligand (log10): 1.91 ± 0.066
Hypoxanthine [2]
  normalized RNA/DNA level without ligand (log10): 1.65 ± 0.038

## ACCUAU
Hypoxanthine [1]
  normalized RNA/DNA level with ligand (log10): 1.908 ± 0.015
Hypoxanthine [2]
  normalized RNA/DNA level without ligand (log10): 1.792 ± 0.0054

## ACCUAA
Hypoxanthine [1]
  normalized RNA/DNA level with ligand (log10): 1.942 ± 0.012
Hypoxanthine [2]
  normalized RNA/DNA level without ligand (log10): 1.87 ± 0.028

## GCCUAC
Hypoxanthine [1]
  normalized RNA/DNA level with ligand (log10): 1.954 ± 0.0075
Hypoxanthine [2]
  normalized RNA/DNA level without ligand (log10): 1.757 ± 0.0057

## GCCUAU
Hypoxanthine [1]
  normalized RNA/DNA level with ligand (log10): 1.944 ± 0.013
Hypoxanthine [2]
  normalized RNA/DNA level without ligand (log10): 1.852 ± 0.011

## GCCCCG
Hypoxanthine [1]
  normalized RNA/DNA level with ligand (log10): 1.92 ± 0.05
Hypoxanthine [2]
  normalized RNA/DNA level without ligand (log10): 1.52 ± 0.021

## GCCCCA
Hypoxanthine [1]
  normalized RNA/DNA level with ligand (log10): 1.965 ± 0.0094
Hypoxanthine [2]
  normalized RNA/DNA level without ligand (log10): 1.85 ± 0.05

## GCCCCU
Hypoxanthine [1]
  normalized RNA/DNA level with ligand (log10): 1.93 ± 0.029
Hypoxanthine [2]
  normalized RNA/DNA level without ligand (log10): 1.933 ± 0.0028

## GCCCCC
Hypoxanthine [1]
  normalized RNA/DNA level with ligand (log10): 1.95 ± 0.033
Hypoxanthine [2]
  normalized RNA/DNA level without ligand (log10): 1.83 ± 0.078

## CCCGCU
Hypoxanthine [1]
  normalized RNA/DNA level with ligand (log10): 1.94 ± 0.056
Hypoxanthine [2]
  normalized RNA/DNA level without ligand (log10): 1.99 ± 0.03

## CCCGCG
Hypoxanthine [1]
  normalized RNA/DNA level with ligand (log10): 1.9 ± 0.029
Hypoxanthine [2]
  normalized RNA/DNA level without ligand (log10): 1.84 ± 0.019

## GCCGGA
Hypoxanthine [1]
  normalized RNA/DNA level with ligand (log10): 1.95 ± 0.043
Hypoxanthine [2]
  normalized RNA/DNA level without ligand (log10): 1.93 ± 0.065

## GCCGGG
Hypoxanthine [1]
  normalized RNA/DNA level with ligand (log10): 1.94 ± 0.023
Hypoxanthine [2]
  normalized RNA/DNA level without ligand (log10): 1.87 ± 0.06

## GCCGGC
Hypoxanthine [1]
  normalized RNA/DNA level with ligand (log10): 1.96 ± 0.066
Hypoxanthine [2]
  normalized RNA/DNA level without ligand (log10): 1.762 ± 0.015
